Patent US10221225B2, “Peptides and combination of peptides and scaffolds thereof for use in immunotherapy against colorectal carcinoma (CRC) and other cancers” (immatics biotechnologies GmbH, priority 2015, dated 2019)

The substances below were run against HLA-A*02:01 (Homo sapiens, UniProt P04439, D140Y/D185E/D98H/E176V/E277Q/G131W/G231S/I119V/I121R/I166T/I218V/L300P/L318F/N151K/N90K/P208A/P217A/Q86G/Q94H/R138H/R169H/T345S) (assay: MHC binding assay (UV-ligand exchange, beta2m ELISA, peptide exchange yield)). Conditions: MHC class I binding score; binding to HLA-A*02:01 ranged by peptide exchange yield (UV-ligand exchange, β2m ELISA).
Source text: Candidate peptides for T cell based therapies according to the present invention were further tested for their MHC binding capacity (affinity). The individual peptide-MHC complexes were produced by UV-ligand exchange, where a UV-sensitive peptide is cleaved upon UV-irradiation, and exchanged with the peptide of interest as analyzed. Only peptide candidates that can effectively bind and stabilize the peptide-receptive MHC molecules prevent dissociation of the MHC complexes. To determine the yield of the exchange reaction, an ELISA was performed based on the detection of the light chain (β2m) of stabilized MHC complexes. The assay was performed as generally described in Rodenko et al. (Rodenko et al., 2006).
96 well MAXISorp plates (NUNC) were coated over night with 2 ug/ml streptavidin in PBS at room temperature, washed 4× and blocked for 1 h at 37° C. in 2% BSA containing blocking buffer. Refolded HLA-A*02:01/MLA-001 monomers served as standards, covering the range of 15-500 ng/ml. Peptide-MHC monomers of the UV-exchange reaction were diluted 100 fold in blocking buffer. Samples were incubated for 1 h at 37° C., washed four times, incubated with 2 ug/ml HRP conjugated anti-β2m for 1 h at 37° C., washed again and detected with TMB solution that is stopped with […]. Absorption was measured at 450 nm. Candidate peptides that show a high exchange yield (preferably higher than 50%, most preferred higher than 75%) are generally preferred for a generation and production of antibodies or fragments thereof, and/or T cell receptors or fragments thereof, as they show sufficient avidity to the MHC molecules and prevent dissociation of the MHC complexes.

Row | Substance | Peptide exchange
1 | 4 (RLAELTVDEFL; listed as Homo sapiens) [compound 4] | ″+++″ (≥50 = +++)
2 | 6 (FLAELPGSLSL; listed as Homo sapiens) [compound 6] | ″+++″ (≥50 = +++)
3 | 8 (ALMLQGVDLL; listed as Homo sapiens) [compound 8] | ″+++″ (≥50 = +++)
4 | 14 (FLDKPEDVLL; listed as Homo sapiens) [compound 14] | ″++″ (≥20% = ++)
5 | 15 (LQLDKEFQL; listed as Homo sapiens) [compound 15] | ″+++″ (≥50 = +++)
6 | 16 (VLVDQSWVL; listed as Homo sapiens) [compound 16] | ″+++″ (≥50 = +++)
7 | 20 (YLKDGDVML; listed as Homo sapiens) [compound 20] | ″+++″ (≥50 = +++)
8 | 23 (FLDANGHFV; listed as Homo sapiens) [compound 23] | ″+++″ (≥50 = +++)
9 | 24 (VLDGVLMEL; listed as Homo sapiens) [compound 24] | ″+++″ (≥50 = +++)
10 | 25 (SLADRLIGV; listed as Homo sapiens) [compound 25] | ″++++″ (≥75% = ++++)
11 | 26 (GLASKENFSNVSL; listed as Homo sapiens) [compound 26] | ″++″ (≥20% = ++)
12 | 27 (LLADEDSSYL; listed as Homo sapiens) [compound 27] | ″++″ (≥20% = ++)
13 | 28 (ALTEIQEFI; listed as Homo sapiens) [compound 28] | ″++++″ (≥75% = ++++)
14 | 29 (QMLDVAIRV; listed as Homo sapiens) [compound 29] | ″+++″ (≥50 = +++)
15 | 30 (GLSSAYGGL; listed as Homo sapiens) [compound 30] | ″+″ (≥10% = +)
16 | 33 (ALWEKNTHL; listed as Homo sapiens) [compound 33] | ″+++″ (≥50 = +++)
17 | 34 (ILLEKSVSV; listed as Homo sapiens) [compound 34] | ″+++″ (≥50 = +++)
18 | 35 (KLLDLTVRI; listed as Homo sapiens) [compound 35] | ″+++″ (≥50 = +++)
19 | 36 (GLLESPSIFNFTA; listed as Homo sapiens) [compound 36] | ″+++″ (≥50 = +++)
20 | 40 (ALSNVIHKV; listed as Homo sapiens) [compound 40] | ″++″ (≥20% = ++)
21 | 41 (ILDDSFKLL; listed as Homo sapiens) [compound 41] | ″++″ (≥20% = ++)
22 | 43 (TLDAAQPRV; listed as Homo sapiens) [compound 43] | ″++″ (≥20% = ++)
23 | 44 (SLESKLTSV; listed as Homo sapiens) [compound 44] | ″+++″ (≥50 = +++)
24 | 45 (ALAELLHGA; listed as Homo sapiens) [compound 45] | ″+++″ (≥50 = +++)
25 | 46 (GLDDRYSLV; listed as Homo sapiens) [compound 46] | ″+++″ (≥50 = +++)

Row | Substance | Peptide exchange
26 | 48 (FLDASDPAL; listed as Homo sapiens) [compound 48] | ″++″ (≥20% = ++)
27 | 50 (TLMAEMHVV; listed as Homo sapiens) [compound 50] | ″+++″ (≥50 = +++)
28 | 51 (QVWEIQHTV; listed as Homo sapiens) [compound 51] | ″++″ (≥20% = ++)
29 | 52 (ALDSSNSMQTI; listed as Homo sapiens) [compound 52] | ″++″ (≥20% = ++)
30 | 53 (FLLGSEIKL; listed as Homo sapiens) [compound 53] | ″+++″ (≥50 = +++)
31 | 54 (ALLNGEYLLAA; listed as Homo sapiens) [compound 54] | ″+++″ (≥50 = +++)
32 | 56 (VLFTDEGVPKFL; listed as Homo sapiens) [compound 56] | ″++″ (≥20% = ++)
33 | 57 (NLLEKENYL; listed as Homo sapiens) [compound 57] | ″+++″ (≥50 = +++)
34 | 58 (AMADKMDMSL; listed as Homo sapiens) [compound 58] | ″++″ (≥20% = ++)
35 | 60 (VLDEDEPRFL; listed as Homo sapiens) [compound 60] | ″++″ (≥20% = ++)
36 | 61 (KLLKLFQGV; listed as Homo sapiens) [compound 61] | ″+++″ (≥50 = +++)
37 | 62 (YLAPENGYL; listed as Homo sapiens) [compound 62] | ″++″ (≥20% = ++)
38 | 63 (KLFSILSTV; listed as Homo sapiens) [compound 63] | ″++″ (≥20% = ++)
39 | 66 (GLDDGPDFL; listed as Homo sapiens) [compound 66] | ″++″ (≥20% = ++)
40 | 67 (SLNDLEKDVMLL; listed as Homo sapiens) [compound 67] | ″+++″ (≥50 = +++)
41 | 68 (SILQFVHMV; listed as Homo sapiens) [compound 68] | ″+++″ (≥50 = +++)
42 | 69 (GMLNEAEGKAIKL; listed as Homo sapiens) [compound 69] | ″++″ (≥20% = ++)
43 | 70 (MISELEVRL; listed as Homo sapiens) [compound 70] | ″+++″ (≥50 = +++)
44 | 71 (RLWTEIPTAI; listed as Homo sapiens) [compound 71] | ″+++″ (≥50 = +++)
45 | 72 (YLLDYPNNLL; listed as Homo sapiens) [compound 72] | ″+++″ (≥50 = +++)
46 | 73 (YLFDIAVSM; listed as Homo sapiens) [compound 73] | ″+++″ (≥50 = +++)
47 | 74 (YLMGFLHAV; listed as Homo sapiens) [compound 74] | ″+++″ (≥50 = +++)
48 | 75 (EMIENIQSV; listed as Homo sapiens) [compound 75] | ″++″ (≥20% = ++)
49 | 76 (YLIGEKQHYL; listed as Homo sapiens) [compound 76] | ″+++″ (≥50 = +++)
50 | 77 (SLLKRDFGA; listed as Homo sapiens) [compound 77] | ″++″ (≥20% = ++)

Row | Substance | Peptide exchange
51 | 78 (ALDPELLLL; listed as Homo sapiens) [compound 78] | ″++″ (≥20% = ++)
52 | 79 (SLAADQLLKL; listed as Homo sapiens) [compound 79] | ″++″ (≥20% = ++)
53 | 80 (QVDEVVDIMRV; listed as Homo sapiens) [compound 80] | ″++″ (≥20% = ++)
54 | 81 (ALLSQQTHL; listed as Homo sapiens) [compound 81] | ″+++″ (≥50 = +++)
55 | 82 (QLYEEPDTKL; listed as Homo sapiens) [compound 82] | ″++″ (≥20% = ++)
56 | 83 (LTIEDGIFEV; listed as Homo sapiens) [compound 83] | ″+++″ (≥50 = +++)
57 | 84 (SMVEDITGLRL; listed as Homo sapiens) [compound 84] | ″+++″ (≥50 = +++)
58 | 85 (ILHDINSDGVL; listed as Homo sapiens) [compound 85] | ″++″ (≥20% = ++)
59 | 86 (KVFPGKISV; listed as Homo sapiens) [compound 86] | ″++″ (≥20% = ++)
60 | 87 (LLFDAPDLRL; listed as Homo sapiens) [compound 87] | ″+++″ (≥50 = +++)
61 | 88 (KLDIKVETV; listed as Homo sapiens) [compound 88] | ″++++″ (≥75% = ++++)
62 | 89 (SLIEYEFRV; listed as Homo sapiens) [compound 89] | ″+++″ (≥50 = +++)
63 | 90 (GLLKPGLNVVL; listed as Homo sapiens) [compound 90] | ″+++″ (≥50 = +++)
64 | 91 (TVDVATPSV; listed as Homo sapiens) [compound 91] | ″+++″ (≥50 = +++)
65 | 92 (WIDDTSAFV; listed as Homo sapiens) [compound 92] | ″+++″ (≥50 = +++)
66 | 93 (SLQELRLLL; listed as Homo sapiens) [compound 93] | ″++++″ (≥75% = ++++)
67 | 94 (KSMDIVLTV; listed as Homo sapiens) [compound 94] | ″+++″ (≥50 = +++)
68 | 95 (AILDAHIEV; listed as Homo sapiens) [compound 95] | ″++++″ (≥75% = ++++)
69 | 96 (KLYSRLVYV; listed as Homo sapiens) [compound 96] | ″++″ (≥20% = ++)
70 | 97 (ALWWGVVTV; listed as Homo sapiens) [compound 97] | ″++″ (≥20% = ++)
71 | 98 (AMNGKSFSV; listed as Homo sapiens) [compound 98] | ″++″ (≥20% = ++)
72 | 99 (KLLEVDLDTV; listed as Homo sapiens) [compound 99] | ″+++″ (≥50 = +++)
73 | 100 (SLDDFLATA; listed as Homo sapiens) [compound 100] | ″+++″ (≥50 = +++)
